Consider 1 molecule from patent publication US20250051446A1 (OSE IMMUNOTHERAPEUTICS, published 2025).

The test deals with T1, human CD28 on peripheral blood CD3+ T lymphocytes (human, UniProt P10747 19-220).
T1 construct: whole, on cells; Target of the receptor occupancy flow cytometry assay on blood T cells of study subjects; also called CD28 receptor
Put plainly: Kd recalculated in the PK/target engagement model from receptor occupancy observed by flow cytometry in humans (cohort A); not a direct in vitro measurement.

For orientation: Kd means the equilibrium constant for the complex coming apart.

B1: FR104, humanized pegylated monovalent anti-CD28 Fab' antibody fragment (Fab, V domains shown)
VH: QVQLQQSGAELKKPGASVKVSCKASGYTFTEYIIHWIKLRSGQGLEWIGWFYPGSNDIQYNAQFKGKATLTADKSSSTVYMELTGLTPEDSAVYFCARRDDFSGYDALPYWGQGTLVTVSA
VL: DIQMTQSPSSLSASVGDRVTITCKTNENIYSNLAWYQQKDGKSPQLLIYAATHLVEGVPSRFSGSGSGTQYSLTISSLQPEDFGNYYCQHFWGTPCTFGGGTKLEIKR
modifications: pegylated at its C-terminus: bi-branched 2x20 kDa PEG linked to the C-terminal cysteine via a maleimide ring
notes: also called FR104-PEG; anti-CD28.3 Fab
In the case of B1, the Kd is around 0.3 nM.
